{"source": "patent US20220175942A1", "about": "(published 2022)", "binders": {"B1": {"name": "CCL11_HUMAN (ligand)", "chain": "not shown"}, "B2": {"name": "P1183_AMBTR (other)", "chain": "EAPKDDFEYDGGCPFVVLDNGTHVKPAGCSHLCNGAPETLDNIECYNVTEEVAKRMTPGIPYACWLGWCSKGECKRDNRTEVCYRGSEEE"}, "B3": {"name": "P1180_AMBTR (other)", "chain": "EEPKDGYDYTEGCPFVVLGNGTHAKPAGCSHLCNGAPETLDDNMECYNVTEEVAKRMTPDIPYTCWLGWCSKGECKRDNRTEVCYRGSERE"}, "B4": {"name": "CCL8_HUMAN (ligand)", "chain": "QPDSVSIPITCCFNVINRKIPIQRLESYTRITNIQCPKEAVIFKTKRGKEVCADPKERWVRDSMKHLDQIFQNLKP"}, "B5": {"name": "CCL15_HUMAN (ligand)", "chain": "QFTNDAETELMMSKLPLENPVVLNSFHFAADCCTSYISQSIPCSLMKSYFETSSECSKPGVIFLTKKGRQVCAKPSGPGVQDCMKKLKPYSI"}, "B6": {"name": "P983_AMBCA (other)", "chain": "EDTGTEDDFDYGNTGCPFPVLGNYKSNMTKPVGCKNKCGSGYEVLNDTTPCYVIDQKVFNNMVPLRQYSKCPLGFCENGECKPNDQAEDCYKGREEQK"}, "B7": {"name": "P983_AMBPA (other)", "chain": "B6 chain"}, "B8": {"name": "CCL17_HUMAN (ligand)", "chain": "ARGTNVGRECCLEYFKGAIPLRKLKTWYQTSEDCSRDAIVFVTVQGRAICSDPNNKRVKNAVKYLQSLERS"}, "B9": {"name": "CCL19_HUMAN (ligand)", "chain": "GTNDAEDCCLSVTQKPIPGYIVRNFHYLLIKDGCRVPAVVFTTLRGRQLCAPPDQPWVERIIQRLQRTSAKMKRRSS"}, "B10": {"name": "CCL5_HUMAN (ligand)", "chain": "SPYSSDTTPCCFAYIARPLPRAHIKEYFYTSGKCSNPAVVFVTRKNRQVCANPEKKWVREYINSLEMS"}, "B11": {"name": "P1181_AMBMA (other)", "chain": "EEREDDNDYGGGCPFVVLGNGTHAKPAGCSHLCNGAPETLDNIECYNVTEEVAKRMTPDIPYTCWLGWCSKGECKRDNRTEVCYRGSERE"}, "B12": {"name": "CCL1_HUMAN (ligand)", "chain": "KSMQVPFSRCCFSFAEQEIPLRAILCYRNTSSICSNEGLIFKLKRGKEACALDTVGWVQRHRKMLRHCPSKRK"}}, "key": {"EVASIN4": {"biological_target": "EVASIN4", "assay": "-; previously described evasin"}, "CCL11_HUMAN": {"biological_target": "B1", "assay": "BLI"}, "CCL2_HUMAN": {"biological_target": "CCL2_HUMAN (human, UniProt P13500 24-99)", "sequence (P13500 24-99)": "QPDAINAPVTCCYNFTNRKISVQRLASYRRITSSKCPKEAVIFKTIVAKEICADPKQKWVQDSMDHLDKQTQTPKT", "assay": "BLI"}, "CCL8_HUMAN": {"biological_target": "B4", "assay": "BLI"}, "CCL4": {"biological_target": "T1, CCL4 (human, UniProt P13236 24-92)", "T1 chain": "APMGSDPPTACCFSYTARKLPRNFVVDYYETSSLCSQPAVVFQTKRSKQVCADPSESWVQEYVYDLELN", "assay": "BLI"}, "CCL13_HUMAN": {"biological_target": "CCL13_HUMAN", "assay": "BLI"}, "CCL3L1_HUMAN": {"biological_target": "CCL3L1_HUMAN", "assay": "BLI"}, "CCL4L1_HUMAN": {"biological_target": "CCL4L1_HUMAN", "assay": "BLI"}, "CCL7_HUMAN": {"biological_target": "CCL7_HUMAN", "assay": "BLI"}, "CCL18_HUMAN": {"biological_target": "T2, CCL18_HUMAN (human, UniProt P55774 21-89)", "T2 chain": "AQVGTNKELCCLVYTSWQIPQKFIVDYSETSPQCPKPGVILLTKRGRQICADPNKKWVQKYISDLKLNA", "assay": "BLI"}, "CCL3_HUMAN": {"biological_target": "T3, CCL3_HUMAN (human, UniProt P10147 24-92)", "T3 chain": "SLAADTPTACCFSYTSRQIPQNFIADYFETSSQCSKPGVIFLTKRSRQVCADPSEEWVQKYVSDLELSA", "assay": "BLI"}, "CCL14_HUMAN": {"biological_target": "CCL14_HUMAN", "assay": "BLI"}}}
{"binder": "B1", "values": [{"measurement": "Kd", "setting": "EVASIN4", "value": 0.34, "unit": "nM"}]}
{"binder": "B2", "values": [{"measurement": "Kd", "setting": "CCL11_HUMAN", "value": 8.47, "unit": "nM"}, {"measurement": "Kd", "setting": "CCL2_HUMAN", "value": 11.9, "unit": "nM"}, {"measurement": "Kd", "setting": "CCL8_HUMAN", "value": 1130, "unit": "nM"}, {"measurement": "Kd", "setting": "CCL4", "value": 78.3, "unit": "nM"}, {"measurement": "Kd", "setting": "CCL13_HUMAN", "value": 5.67, "unit": "nM"}, {"measurement": "Kd", "setting": "CCL3L1_HUMAN", "value": 110, "unit": "nM"}, {"measurement": "Kd", "setting": "CCL4L1_HUMAN", "value": 48.4, "unit": "nM"}, {"measurement": "Kd", "setting": "CCL7_HUMAN", "value": 5.38, "unit": "nM"}]}
{"binder": "B3", "values": [{"measurement": "Kd", "setting": "CCL11_HUMAN", "value": 32.5, "unit": "nM"}, {"measurement": "Kd", "setting": "CCL2_HUMAN", "value": 53, "unit": "nM"}, {"measurement": "Kd", "setting": "CCL8_HUMAN", "value": 3.63, "unit": "nM"}, {"measurement": "Kd", "setting": "CCL18_HUMAN", "value": 5.78, "unit": "nM"}, {"measurement": "Kd", "setting": "CCL4", "value": 66, "unit": "nM"}, {"measurement": "Kd", "setting": "CCL3_HUMAN", "value": 1.07, "unit": "nM"}, {"measurement": "Kd", "setting": "CCL14_HUMAN", "value": 4.4, "unit": "nM"}, {"measurement": "Kd", "setting": "CCL13_HUMAN", "value": 8.96, "unit": "nM"}, {"measurement": "Kd", "setting": "CCL3L1_HUMAN", "value": 2.19, "unit": "nM"}, {"measurement": "Kd", "setting": "CCL4L1_HUMAN", "value": 19.5, "unit": "nM"}, {"measurement": "Kd", "setting": "CCL7_HUMAN", "value": 98, "unit": "nM"}]}
{"binder": "B4", "values": [{"measurement": "Kd", "setting": "EVASIN4", "value": 0.25, "unit": "nM"}]}
{"binder": "B5", "values": [{"measurement": "Kd", "setting": "EVASIN4", "value": 2.31, "unit": "nM"}]}
{"binder": "B6", "values": [{"measurement": "Kd", "setting": "CCL11_HUMAN", "value": 18, "unit": "nM"}, {"measurement": "Kd", "setting": "CCL2_HUMAN", "value": 13.9, "unit": "nM"}, {"measurement": "Kd", "setting": "CCL8_HUMAN", "value": 6.99, "unit": "nM"}, {"measurement": "Kd", "setting": "CCL4", "value": 8.03, "unit": "nM"}, {"measurement": "Kd", "setting": "CCL3_HUMAN", "value": 3.51, "unit": "nM"}]}
{"binder": "B7", "values": [{"measurement": "Kd", "setting": "CCL14_HUMAN", "value": 81, "unit": "nM"}, {"measurement": "Kd", "setting": "CCL13_HUMAN", "value": 17.3, "unit": "nM"}, {"measurement": "Kd", "setting": "CCL3L1_HUMAN", "value": 2.08, "unit": "nM"}, {"measurement": "Kd", "setting": "CCL4L1_HUMAN", "value": 2.86, "unit": "nM"}, {"measurement": "Kd", "setting": "CCL7_HUMAN", "value": 32.1, "unit": "nM"}]}
{"binder": "B8", "values": [{"measurement": "Kd", "setting": "EVASIN4", "value": 0.61, "unit": "nM"}]}
{"binder": "B9", "values": [{"measurement": "Kd", "setting": "EVASIN4", "value": 0.14, "unit": "nM"}]}
{"binder": "B10", "values": [{"measurement": "Kd", "setting": "EVASIN4", "value": 0.09, "unit": "nM"}]}
{"binder": "B11", "values": [{"measurement": "Kd", "setting": "CCL11_HUMAN", "value": 19.5, "unit": "nM"}, {"measurement": "Kd", "setting": "CCL2_HUMAN", "value": 2.21, "unit": "nM"}, {"measurement": "Kd", "setting": "CCL8_HUMAN", "value": 119, "unit": "nM"}, {"measurement": "Kd", "setting": "CCL18_HUMAN", "value": 10, "unit": "nM"}, {"measurement": "Kd", "setting": "CCL4", "value": 53, "unit": "nM"}, {"measurement": "Kd", "setting": "CCL3_HUMAN", "value": 3.29, "unit": "nM"}, {"measurement": "Kd", "setting": "CCL14_HUMAN", "value": 47, "unit": "nM"}, {"measurement": "Kd", "setting": "CCL13_HUMAN", "value": 19, "unit": "nM"}, {"measurement": "Kd", "setting": "CCL3L1_HUMAN", "value": 100, "unit": "nM"}, {"measurement": "Kd", "setting": "CCL4L1_HUMAN", "value": 13.5, "unit": "nM"}, {"measurement": "Kd", "setting": "CCL7_HUMAN", "value": 35, "unit": "nM"}]}
{"binder": "B12", "values": [{"measurement": "Kd", "setting": "EVASIN4", "value": 0.2, "unit": "nM"}]}
